In patent US20100047245A1 (AbbVie / Abbott, published 2010):

Target: recombinant purified cyno IL-12 p70 (cynomolgus monkey)
Experiment: cell-based or functional assay

Chain of recombinant purified cyno IL-12 p70 (cynomolgus monkey) (P48095 23-328, chain 1 of 2): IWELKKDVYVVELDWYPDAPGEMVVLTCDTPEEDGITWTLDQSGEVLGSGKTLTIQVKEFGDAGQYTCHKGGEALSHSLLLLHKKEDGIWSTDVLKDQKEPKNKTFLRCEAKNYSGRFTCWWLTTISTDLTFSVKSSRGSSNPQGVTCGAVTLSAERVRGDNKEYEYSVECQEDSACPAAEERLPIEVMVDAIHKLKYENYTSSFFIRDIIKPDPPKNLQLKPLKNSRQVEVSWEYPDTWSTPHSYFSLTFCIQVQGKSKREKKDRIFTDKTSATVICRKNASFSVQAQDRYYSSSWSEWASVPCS
Chain of recombinant purified cyno IL-12 p70 (cynomolgus monkey) (P48091 23-219, chain 2 of 2, further chain): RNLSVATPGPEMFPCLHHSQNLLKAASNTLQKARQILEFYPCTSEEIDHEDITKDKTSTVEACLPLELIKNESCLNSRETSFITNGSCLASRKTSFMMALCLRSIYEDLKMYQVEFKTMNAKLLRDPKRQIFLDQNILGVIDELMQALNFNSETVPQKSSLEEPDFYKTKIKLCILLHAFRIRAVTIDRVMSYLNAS

| Average IC50 (nM) Cyno IL-12; PHA blast IFN-gamma induction assay | Binder |
| --- | --- |
| 0.15 nM | 8E1-Chim (antibody, human IgG1, V domains shown) VH: EVKLVESGGGLVQPGGSRKLSCAASGFTFSDYGMVWVRQAPGKGLEWVASISSGSSNIYYADTVKGRFTISRDDPNNTLFLQMRSLRSEDTAMYYCARNPYWGQGTTLTVSS VL: DIVMTQSQKFMSTSVGDRVSVTCKASQNVGTNVAWYQQKPGQSPKGLIYSASHRYSGVPDRFAGSGSGTDFTLTISNVQSEDLAEYFCQQYNSYPLTFGGGTKLELKR |
| 0.07 nM | 1D4-Chim (antibody, human IgG1, V domains shown) VH: QVTLKESGPGILQPSQTLSLTCSFSGFSLRKSVMGVSWIRQPSGKGLEWLAHIYWDDDKYYNPSLKSRLTISKDPSRNQVFLKITSVDTADAATYYCTRRGIRSAMDYWGQGTSVTVSS VL: SVVMTQTPKFLLVSAGDRVTITCKASQSVSNDVAWYQQKPGQSPKLLIYYASNRYTGVPDRFTGSGYGTDFTFIISTVRAEDLAVYFCQQDYNSPWTFGGGTKLEIKR |
| 0.02 nM | 1A6-Chim (antibody, human IgG1, V domains shown) VH: QVTLKESGPGILKPSQTLSLTCSFSGFSLSTSGMGVSWIRQPSGKGLEWLAHIWWDGDNYYNPSLKSQLTISKDTSRNQVFLRIATVDTADTATYYCARRTRVNYAMDYWGQGTSVTVSS VL: SVVMTQTPKFLLVSAGDRVTITCKASQSVSNDVAWFQQKPGQSPKLLIYYASNRYTGVPDRFTGSGYGTDFTFTISTVQAEDLAVYFCQQDYNSPWTFGGGTKLEIKR |
| 0.32 nM | 3G7-Chim (antibody, human IgG1, V domains shown) VH: QVQLQQSGAELMKPGASVKISCKATGYTFNDYWIEWVKQRPGHGLEWIGGFSHGSGSTNYNEKFKGKATFTADSSSNTAYMQLSSLTSEDSAVYYCARRRFRGMDYWGQGTSVTVSS VL: SIVMTQTPKFLLVSAGDRVTITCKASQSVSNDVAWYQQKPGQSPKLLIYYASNRYTGVPDRFTGSGYGTDFTFTITTVQAEDLAVYFCQQDYSSPWSFGGGTKLEIKR |
